Reference: patent publication US20200239590A1 (WASHINGTON UNIVERSITY, published 2020)

T1: recombinant TIP1 protein (tax interacting protein 1) (Homo sapiens (Human), UniProt O14907 2-124, limits assumed)
T1 construct: Purified recombinant TIP1 used as coat or analyte in ELISA, Western blot and Biacore
T1 sequence: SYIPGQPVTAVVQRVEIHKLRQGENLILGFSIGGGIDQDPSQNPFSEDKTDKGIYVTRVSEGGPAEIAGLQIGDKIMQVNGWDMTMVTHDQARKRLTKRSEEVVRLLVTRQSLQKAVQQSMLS

T2: TIP1 in or on human tumor cell lines (A549, H460, H23, U251) (human, UniProt O14907 2-124)
T2 construct: Endogenous TIP1 of tumor cell lines, not transfected cells; also called cell surface TIP1
T2 sequence: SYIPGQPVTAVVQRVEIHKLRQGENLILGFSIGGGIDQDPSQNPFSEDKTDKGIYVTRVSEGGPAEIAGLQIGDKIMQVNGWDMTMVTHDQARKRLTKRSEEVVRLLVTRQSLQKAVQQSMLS


Columns and labels:
[1] = biological target: T1, recombinant TIP1 protein (tax …); experiment: indirect ELISA, hybridoma supernatant dilutions on coated recombinant TIP1, anti-mouse HRP, TMB
Procedure: Indirect ELISA was performed using standard procedures. Briefly, 10 ug purified recombinant TIP1 protein was coated overnight in 96-well ELISA plates. Next day, wells were blocked with 3% milk and left overnight in the refrigerator. Following day, various 2-fold dilutions of the hybridoma supernatants were prepared in 3% milk and added to the wells in duplicate. The plates were then washed with PBS-0.1% Tween 20 buffer and incubated with anti-mouse HRP conjugated antibodies. Following washing with PBST, plates were developed with TMB substrate and absorbance read in a plate reader at 450 nm.

[2] = biological target: T2, TIP1 in or on human tumor cell lines …; experiment: flow cytometry, hybridoma supernatant on A549, H460 and H23 cells, Alexa Fluor 488 anti-mouse antibody
Procedure: A549, H460 and H23 cells were incubated with the hybridoma supernatants on ice for 1 h. […] Following washing with FACS buffer, cells were acquired in the MACSQuant Analyzer flow cytometer.

| Binder | binding result [1] | binding result [2] |
| --- | --- | --- |
| 4B12 mouse monoclonal anti-TIP1 antibody (antibody, V domains shown, also called 4612) VH: QFQLQQSGAELARPGASVKLSCKASGYTFTSYGISWVKQRTGQGLEWIGEIYFRSGNIYYNEKFKGKATLTADKSSSTAYMELRSLTSEDSAVYFCARSKTFYSNYGGVFDYWGQGTTLTVSS VL: DVLVTQTPLSLPVSLGDQASISCRSSRSIVHNNGNTYLEWYLQKPGQSPKLLIYKVSNRFSGVPDRFSGSGSGTDFTLKISRVEAEDLGVYYCFQGSHVPPTFGGGTRLEIK | binds | – |
| 2F10 mouse monoclonal anti-TIP1 antibody (antibody, V domains shown, Mouse monoclonal from hybridoma, tested as supernatant or purified) VH: QVQLQQSGAELARPGASVKLSCKASGYTFTSSGISWVIQKTGQGLEWIGEIYPRSGNTYYNEKFKAKAALTADKSSSTAHMELRSLTSEDSAVYFCARSKTYYSKYGGFFDYWGQGTPLTVSS VL: DVLMTQTPLSLPVSLGDQASISCRSSQSIVHGNGNTYLEWYLQKPGQSPKLLIHKVSNRFSGVPDRFSGSGSGTDFTLKISRVEAEDLGVYYCFQGSHVPPTFGGGTKLEIK | – | binds |

Now from value to binder:

| binding result [1] | binding result [2] | Binder |
| --- | --- | --- |
| – | binds | 7H5 mouse monoclonal anti-TIP1 antibody (antibody, V domains shown, Mouse monoclonal from hybridoma) VH: QAQLQQSGAELARPGASVRLSCKASGYILTSSGISWVKQRTGQGLEWIGEIYPRSGNTYYNEKFKGKATLTADKSSSIAYMDLRTLTSEDSAVYFCARSKTFYSKYGGVFDYWGQGTTLTVSS VL: DVLMTQTPLSLPVSLGDQASISCRSSQNIVHNNGNTYLDWYLQKPGQSPKLLIYKVSNRFSGVPDRFSGSGSGADFTLKISRVEAEDLGVYYCFQGSHVPPTFGGGTKLEIK |
| – | binds | 3D6 mouse monoclonal anti-TIP1 antibody (antibody, V domains shown, Mouse monoclonal from hybridoma) VH: QVQLHQSGAELARPGAAVKLTCKASGYTLTNSGISWVKQRSGQGLEWIGEIYPGSGNIYYNEKFKVKATLTADKSSSTTYMELRSLTSEDSAVYFCARSRTYYSKYGGLFDYWGQGATLTVSS VL: DVLMTQTPLSLPVRLGDQASISCRSSQSLLHNNGNTYLEWYLQKPGQSPKLLIYKVSSRFSGVPDRFSGSGSGTDFTLKISRVEAKDLGVYYCFQGSHIPPTFGGGTKLEIK |
